Changes are numbered by the printed parent chain. Numbers in names are those of the source.
T1: IL-18 receptor (IL-18Rα/IL-18Rβ) on cells (HEK-Blue IL18R reporter cells, NK-92, KG-1) (human, UniProt Q13478 19-541; O95256 20-599)
T1 sequence (looked up) 1: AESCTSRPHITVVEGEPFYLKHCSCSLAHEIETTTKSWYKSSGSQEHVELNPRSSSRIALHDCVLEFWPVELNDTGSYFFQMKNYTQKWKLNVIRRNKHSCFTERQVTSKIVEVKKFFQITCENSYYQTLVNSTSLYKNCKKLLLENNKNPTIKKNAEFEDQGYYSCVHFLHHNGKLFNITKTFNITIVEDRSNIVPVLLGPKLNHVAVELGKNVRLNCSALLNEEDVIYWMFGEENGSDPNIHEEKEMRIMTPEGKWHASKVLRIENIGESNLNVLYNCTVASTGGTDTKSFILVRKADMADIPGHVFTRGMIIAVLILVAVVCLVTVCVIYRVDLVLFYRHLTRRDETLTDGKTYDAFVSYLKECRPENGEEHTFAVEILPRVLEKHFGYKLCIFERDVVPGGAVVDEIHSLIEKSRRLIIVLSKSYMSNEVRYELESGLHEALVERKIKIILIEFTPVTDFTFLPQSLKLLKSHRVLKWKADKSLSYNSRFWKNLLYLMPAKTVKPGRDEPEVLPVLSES
T1 sequence (looked up) 2: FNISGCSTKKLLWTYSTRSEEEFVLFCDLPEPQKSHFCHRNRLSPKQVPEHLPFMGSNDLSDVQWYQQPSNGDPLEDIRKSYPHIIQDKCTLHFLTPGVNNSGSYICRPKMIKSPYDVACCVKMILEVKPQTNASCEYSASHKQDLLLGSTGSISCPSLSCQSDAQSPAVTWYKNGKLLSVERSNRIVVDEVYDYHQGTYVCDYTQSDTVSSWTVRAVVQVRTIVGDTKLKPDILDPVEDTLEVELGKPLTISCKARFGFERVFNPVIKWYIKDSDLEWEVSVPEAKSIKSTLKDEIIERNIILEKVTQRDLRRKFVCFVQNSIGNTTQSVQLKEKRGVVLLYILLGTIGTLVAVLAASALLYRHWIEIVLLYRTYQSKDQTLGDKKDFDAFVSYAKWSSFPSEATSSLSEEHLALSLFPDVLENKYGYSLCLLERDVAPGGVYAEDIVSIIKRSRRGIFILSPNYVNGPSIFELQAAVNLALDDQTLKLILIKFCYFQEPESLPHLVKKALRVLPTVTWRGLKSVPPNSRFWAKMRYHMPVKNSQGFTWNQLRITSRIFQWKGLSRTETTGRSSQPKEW

T2: human IL-18BP-His (human, UniProt O95998 31-194, limits assumed)
T2 construct: also called His-tagged human IL-18BP; not shown: His tag
T2 sequence (looked up): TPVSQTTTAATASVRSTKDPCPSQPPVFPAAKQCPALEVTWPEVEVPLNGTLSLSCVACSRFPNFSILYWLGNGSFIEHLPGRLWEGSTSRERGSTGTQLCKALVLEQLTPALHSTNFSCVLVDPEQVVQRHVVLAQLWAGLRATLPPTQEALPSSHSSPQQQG

B1: IL-18 polypeptide C140 (SEQ ID NO: 72) (ligand)
chain: GGGGYFGKLKSKLSIIRNLNDQVLFIDQGNRPLFEDMTDSDARDNAPRTIFIISMYADSQPRGMAVAISVKCEKISTLSAENKIISFKEMNPPDNIKDTKSDIIFFQRSVPGHDNKMQFESSSYEGYFLAAEKERDLFKLILKKEDELGDRSIMFTVQNED
B2: IL-18 polypeptide C142 (ligand)
chain: MFGKLKSKLSIIRNLNDQVLFIDQGNRPLFEDMTDSDARDNAPRTIFIISMYADSQPRGMAVAISVKCEKISTLSAENKIISFKEMNPPDNIKDTKSDIIFFQRSVPGHDNKMQFESSSYEGYFLAAEKERDLFKLILKKEDELGDRSIMFTVQNED
notes: also called Y1M, E6K, V11I, C38A, K53A, T63A, C76A, C127A
B3: IL-18 polypeptide of SEQ ID NO: 4 (E6K, C38A, K53A, C68A, M86C) (ligand)
chain: B2 chain with M1Y, I11V, A63T, C68A, A76C, M86C, A127C
B4: IL-18 polypeptide of SEQ ID NO: 5 (E6K, V11I, C38A, K53A, T63A, C68A, C76A, M86C, C127A) (ligand)
chain: B2 chain with M1Y, C68A, M86C
B5: IL-18 polypeptide of SEQ ID NO: 43 (E06K, K53A, S55A, Y01G) (ligand)
chain: B2 chain with M1G, I11V, A38C, S55A, A63T, A76C, A127C
B6: IL-18 polypeptide of SEQ ID NO: 9 (E6K, C38A, K53A, C68A, D98C) (ligand)
chain: B2 chain with M1Y, I11V, A63T, C68A, A76C, D98C, A127C
B7: IL-18 polypeptide of SEQ ID NO: 6 (E6K, V11I, C38A, K53A, T63A, C68A, C76A, D98C, C127A) (ligand)
chain: B2 chain with M1Y, C68A, D98C
B8: IL-18 polypeptide C144 (ligand)
chain: B2 chain with M1Y, K6E
notes: also called V11I, C38A, K53A, T63A, C76A, C127A
B9: IL-18 polypeptide C177 (ligand)
chain: B2 chain with M1Y, I49R
B10: IL-18 polypeptide C176 (ligand)
chain: B2 chain with M1Y, I49M
notes: also called E6K, V11I, C38A, I49M, K53A, T63A, C76A, C127A
B11: IL-18 polypeptide of SEQ ID NO: 48 (C38S, C68S, C76S, C127S, K70C) (ligand)
chain: B2 chain with M1Y, K6E, I11V, A38S, A53K, A63T, C68S, K70C, A76S, A127S
B12: IL-18 polypeptide of SEQ ID NO: 47 (C38S, C68S, C76S, C127S) (ligand)
chain: B2 chain with M1Y, K6E, I11V, A38S, A53K, A63T, C68S, A76S, A127S
B13: IL-18 polypeptide C145 (ligand)
chain: B2 chain with M1Y, K6E, S55A, A63T
notes: also called V11I, C38A, K53A, S55A, C76A, C127A
B14: IL-18 polypeptide C182 (ligand)
chain: B2 chain with M1Y, V153Y
B15: IL-18 polypeptide C174 (ligand)
chain: B2 chain with M1Y, K8L
notes: also called K8L, E6K, V11I, C38A, K53A, T63A, C76A, C127A
B16: IL-18 polypeptide C181 (ligand)
chain: B2 chain with M1Y, V153E
B17: IL-18 polypeptide of SEQ ID NO: 34 (E06K, K53A, S55A) (ligand)
chain: B2 chain with M1Y, I11V, A38C, S55A, A63T, A76C, A127C
B18: IL-18 polypeptide of SEQ ID NO: 49 (E06K, K53A, S55A, C38S, C68S, C76S, C127S, K70C) (ligand)
chain: B2 chain with M1Y, I11V, A38S, S55A, A63T, C68S, K70C, A76S, A127S
B19: IL-18 polypeptide of SEQ ID NO: 35 (Y01G, F02A, E06K, M51G, K53A, D54A, S55A, T63A) (ligand)
chain: B2 chain with M1G, F2A, I11V, A38C, M51G, D54A, S55A, A76C, A127C
B20: IL-18 polypeptide C183 (SEQ ID NO: 69) (ligand)
chain: B2 chain with M1Y, M51G
B21: IL-18 polypeptide of SEQ ID NO: 45 (E06K, K53A, S55A, D54A) (ligand)
chain: B2 chain with M1Y, I11V, A38C, D54A, S55A, A63T, A76C, A127C
B22: IL-18 polypeptide C146 (SEQ ID NO: 68) (ligand)
chain: B2 chain with M1Y, K6E, M51G, A63T
notes: also called V11I, C38A, M51G, K53A, C76A, C127A
B23: IL-18 polypeptide C178 (ligand)
chain: B2 chain with M1Y, Q103R
B24: IL-18 polypeptide of SEQ ID NO: 44 (E06K, K53A, S55A, F02A) (ligand)
chain: B2 chain with M1Y, F2A, I11V, A38C, S55A, A63T, A76C, A127C
B25: IL-18 polypeptide C179 (ligand)
chain: B2 chain with M1Y, K8E, Q103R
B26: IL-18 polypeptide of SEQ ID NO: 55 (K53A, T63A, C38S, C68S, C76S, C127S, K70C) (ligand)
chain: B2 chain with M1Y, K6E, I11V, A38S, C68S, K70C, A76S, A127S
B27: IL-18 polypeptide C184 (ligand)
chain: B2 chain with M1Y, K6R
notes: also called E6R, V11I, C38A, K53A, T63A, C76A, C127A
B28: IL-18 polypeptide of SEQ ID NO: 56 (E6K, K53A, C38S, C76S, C127S) (ligand)
chain: B2 chain with M1Y, I11V, A38S, A63T, A76S, A127S
B29: IL-18 polypeptide of SEQ ID NO: 46 (E06K, K53A, S55A, M51G) (ligand)
chain: B2 chain with M1Y, I11V, A38C, M51G, S55A, A63T, A76C, A127C
B30: IL-18 polypeptide C143 (ligand)
chain: B2 chain with M1Y, K6E, A63T
notes: also called V11I, C38A, K53A, C76A, C127A
B31: IL-18 polypeptide C141 (SEQ ID NO: 71) (ligand)
chain: GYFGKLKSKLSIIRNLNDQVLFIDQGNRPLFEDMTDSDARDNAPRTIFIISMYADSQPRGMAVAISVKCEKISTLSAENKIISFKEMNPPDNIKDTKSDIIFFQRSVPGHDNKMQFESSSYEGYFLAAEKERDLFKLILKKEDELGDRSIMFTVQNED
B32: IL-18 polypeptide C192 (SEQ ID NO: 70) (ligand)
chain: B31 chain with M52G

Columns and labels:
[1] = target: T1, IL-18 receptor (IL-18Rα/IL-18Rβ) on …; experiment: cell-based or functional assay
human IL-18BP-His = target: T2, human IL-18BP-His; experiment: AlphaLISA of free IL-18BP
Method: The plate is incubated further for 1 hr at room temperature. Under subdued light, 12.5 µL of 2× streptavidin (SA) donor beads are pipetted into each well, and the wells are incubated with shaking for an additional 30 min at room temperature. The AlphaLisa signal is then measured on an Enspire plate reader with 680 and 615 nm as excitation and emission wavelengths, respectively. The dissociation constant (K_D) is calculated based on a variable slope, four parameter analysis using GraphPad PRISM software.

[2] = target: T1, IL-18 receptor (IL-18Rα/IL-18Rβ) on …; experiment: cell-based or functional assay; remark: listed apart in the source

Binder	EC50, HEK-Blue IL18R reporter cells [1]	Kd (human IL-18BP-His)	EC50, IFNγ stimulation, NK92 cells [2]
B1	2.5 pM	–	–
B2	0.02 pM	2.25 nM	–
B3	–	–	0.022 nM
B4	–	–	0.075 nM
B5	–	–	6.12 nM
B6	–	–	0.069 nM
B7	–	–	1.37 nM
B8	0.17 pM	0.66 nM	0.012 nM
B9	0.04 pM	–	–
B10	0.07 pM	25.8 nM	–
B11	–	0.21 nM	0.488 nM
B12	–	0.03 nM	0.115 nM
B13	3.63 pM	9.74 nM	0.087 nM
B14	0.08 pM	–	–
B15	0.29 pM	0.14 nM	–
B16	0.1 pM	–	–

Binder	EC50, HEK-Blue IL18R reporter cells [1]	Kd (human IL-18BP-His)	EC50, IFNγ stimulation, NK92 cells [2]
B17	272 pM	–	0.824 nM
B18	–	–	58.5 nM
B19	–	–	> 55 nM
B20	0.1 pM	–	–
B21	–	–	30 nM
B22	0.8 pM	373 nM	0.037 nM
B23	0.26 pM	–	–
B24	–	–	> 1000 nM
B25	0.4 pM	–	–
B26	–	913 nM	17.2 nM
B27	0.04 pM	5.46 nM	–
B28	3.73 pM	436 nM	–
B29	–	–	7.4 nM
B30	0.98 pM	8.86 nM	0.138 nM
B31	1.68 pM	–	–
B32	14 pM	–	–
